Experimental findings from patent US20240109960A1 (ARGENX, published 2024) are described below.

The target of assay [1] is T1, human IL-9 (human, UniProt P15248 19-144). Nature of the assay: cell-based or functional assay.
Assay [2] concerns the target T1, human IL-9. Nature of the assay: BLI (Octet Red 96), mAb captured on anti-hIgG Fc sensor, hIL-9 in solution, 1:1 model. The method, then: (§1) The BLI experiments on the antagonistic antibodies were performed using an Octet Red 96 machine (Sartorius) in kinetics buffer (PBS, 0.1% (w/v) BSA, 0.02% (v/v) Tween20) at 298 K. Anti-hIgG Fc capture (AHC) or anti-mIgG Fc capture sensors (Sartorius) were functionalized with the IL-9 mAbs. […] Non-functionalized tips were used as negative controls in a double referenced setup. After subtracting the control sensorgrams, the resulting data was fitted with a 1:1 binding model. Data analysis was performed using the Data Analysis software 9.0.0.14 (Sartorius) (Table 6).
(In general: Biolayer interferometry detects binding as a change in optical thickness at a sensor tip.)

In assay [3] the target is T1, human IL-9. The assay is described as follows: cell-based or functional assay. The source holds these as a separate data set.
Assay [4] addresses T2, mouse IL-9 (mouse, UniProt P15247 19-144).
T2 construct: Recombinant mouse IL-9 (R&D Systems) in SPR and BLI; baculovirus supernatant in the bioassay; also called mIL-9; mIL9
T2 sequence: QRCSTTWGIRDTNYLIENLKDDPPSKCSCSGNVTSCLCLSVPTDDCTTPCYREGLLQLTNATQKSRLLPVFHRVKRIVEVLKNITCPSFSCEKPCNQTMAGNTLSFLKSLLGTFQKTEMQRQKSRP
Nature of the assay: SPR (Biacore 3000), IL-9 immobilised on CM-5 chip, Fab periplasmic extract injected. The protocol: (§2) The binding of Fabs (periplasmic extract) to their respective mouse or human targets was determined by surface plasmon resonance (SPR) using a Biacore 3000 apparatus (GE Healthcare). IL-9 was immobilized on a carboxymethyl dextran sensor chip (CM-5) using amine coupling in sodium acetate buffer (GE Healthcare). The Fab-containing periplasmic extracts were loaded with a flow rate of […]. The Fab binding and off-rates were measured over a 90 second period (Table 5). […] Furthermore, the ability of the antibodies to compete for human or mouse IL-9 binding to human or rat IL-9R was tested also in a Biacore 3000. For this assay, human or rat IL-9R was coated at high density on a carboxymethyl dextran sensor chip (CM-5). Then, a premade mixture of periplasmic extract (Fab) and IL-9 was injected.

Assay [5] concerns the target T1, human IL-9. The assay is described as above. The method, then:
as §2

Assay [6] has as its target T2, mouse IL-9. The assay is described as follows: cell-based or functional assay.
For assay [7], the target named is T2, mouse IL-9. Nature of the assay: BLI (Octet Red 96), mAb captured on anti-mIgG Fc sensor, mIL-9 in solution, 1:1 model. The protocol: as §1
The target in assay [8] is T1, human IL-9. The assay is described as follows: SPR screening of Fab periplasmic extracts. The method, then:
as §2

Broadly, the Kd is the free concentration of one partner at which half of the binding sites on the other are occupied at equilibrium, for simple one-to-one binding. Higher therefore signals weaker binding. As usually defined, the koff is a measure of how fast the partners let go of each other. High values mean a short-lived complex, low ones a long-lived complex. The kon is the rate constant with which the complex forms. A low value points to slow association.

Changes are numbered by the printed parent chain. Numbers in names are those of the source.

T1 sequence (P15248 19-144 limits assumed): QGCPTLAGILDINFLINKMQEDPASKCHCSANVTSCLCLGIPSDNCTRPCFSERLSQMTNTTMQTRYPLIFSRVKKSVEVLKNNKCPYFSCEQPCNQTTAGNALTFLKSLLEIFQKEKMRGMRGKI

B1: anti-hIL-9 antibody 6E2 (full IgG) (antibody, V domains shown)
VH: QVQLVESGGGLVQPGGSLRLSCAASGFTFSSSAMGWVRQAPGKGLEWVSTIVNSITTTYYADSVKGRFTISTDNAKNTLYLQIDSLKSEDTAVYYCGSLAGPYYDYWGQGTQVTVSS
VL: LSSALTQPSTVSVSLGQTARITCQGGSLGSYDAHWYQQKPGQAPVLVIHDNNSRPSGIPERFTGSRSGETATLTISGAQTEDEADYYCQSYDSTSDALVFGGGTQLTVL
notes: also called mAb 6E2; 9MP6E2
As for B1, the “IC50, inhibition of human IL-9-induced Baf3hIL9RA6 cell proliferation (hexosaminidase, OD405)” value (shortened to “IC50, inhibition”) with human IL-9 [1] worked out at 0.0609 nM. In the assay with human IL-9 [2], this molecule came in with a dissociation constant Kd of 0.24 nM. In the assay with human IL-9 [3], the “Bioassay IC50 [pM]: inhibition of human IL-9-induced Baf3hIL9RA6 cell proliferation” value (“Bioassay IC50 [pM]: inhibition” below) came to 30.9 pM.

B2: Fab 6E2 (Fab, V domains shown)
VH: B1 VH
VL: B1 VL
notes: it is treated as the same molecule; also called 9MP6E2
With B2, the binding result with mouse IL-9 [4] is listed as “no binding”.

B3: anti-hIL-9 antibody 7D6 (full IgG) (antibody, V domains shown)
VH: QLQLVESGPGLVKPSQTLSLTCTVSGGSITTGYYAWSWIRQPPGKGLEWMGFIARDGSTSYSPSLKSRTSISRDTSKNQFSLQLSSVTPEDTAVYYCARAGEGRSWYPGYYYGMDYWGKGTLVTVSS
VL: AQAVVTQEPSLSVSPGGTVTLTCGLSSGSVTSSNYPGWYQQTPGQAPRVLIYNTNSRHSGVPSRYSGFISGNKAALTITGAEPEDEADYYCHLHKGSTGVFGGGTHLTVL
notes: also called 9MP7D6
As for B3, the “IC50, inhibition” value in the assay with human IL-9 [1] is 6.3 nM. Besides, the Kd with human IL-9 [2] worked out at 1.81 nM. Moreover, the “Bioassay IC50 [pM]: inhibition” value with human IL-9 [3] came to 2110 pM.

B4: Fab 7D6 (Fab, V domains shown)
VH: B3 VH
VL: B3 VL
notes: it is treated as the same molecule; also called 9MP7D6
As to B4, the binding result with mouse IL-9 [4] is listed as “no binding”.

B5: Fab 7A4 (Fab, V domains shown)
VH: B3 VH with Q1E, L2V
VL: B3 VL with G37A, K95E, T108N
notes: Llama-derived Fab (VH-CH1 and VL-CL) from E. coli periplasmic extract; also called 9MP7A4
Turning to B5, the binding result in the assay with mouse IL-9 [4] is “no binding”. In the assay with human IL-9 [5], this molecule came in with a koff of 0.00013 s⁻¹.

B6: anti-mIL-9 antibody 35D8, new batch (mIgG1-N297A) (antibody, V domains shown)
VH: QVQLVESGPGLVQPSQTLSLTCTVSGGSITTSYYDWSWIRQPPGKGLEWMGAIAYSGNAYYSPSLKSRTSISRDTSKNQFTLQLSSVTPEDTAVYYCAREDHYSDTHGWNDYWGQGTQVTVSS
VL: SSALTQPSAVSVSLGQTARITCQGGSIGNFGATWYQQKPGQAPVLLSLGEHSRPSGIPERFSGSKSGGTATLTISGAQAEDEADYYCQSFDYIGNDHVFGGGTHLTVL
On to B6, for which the “Bioassay IC50 [pM]: neutralisation of mouse IL-9 on TS1 cells (hexosaminidase activity)” value in the assay with mouse IL-9 [6] turned out to be 20.1 pM.

B7: anti-mIL-9 antibody 35D8 (full mIgG2a) (antibody, V domains shown)
VH: B6 VH
VL: B6 VL
notes: the BLI values are placed here; also called mouse IL-9 mAb
For the molecule B7, in the assay with mouse IL-9 [7], the affinity, expressed as Kd, was 0.11 nM; the dissociation rate constant (koff) worked out at 0.000159 s⁻¹; the kon turned out to be 1.39e+06 M⁻¹ s⁻¹.

B8: Fab 35D8 (Fab, V domains shown)
VH: B6 VH
VL: B6 VL
notes: it is treated as the same molecule
In the assay with mouse IL-9 [4], B8 had a koff of 0.00047 s⁻¹. Also, the binding result with human IL-9 [5] is “no binding”.

B9: Fab 6C4 (Fab, V domains shown)
VH: QVQLVESGGGLVQPGGSLRLSCAASGFTFDDYAMSWVRQAPGKGLEWVSAISWNGGSTYHAESMKGRFTISRDNAKNTLYLQMNSLKSEDTAVYYCAKNLYGSSWYEYDYWGQGTQVTVSS
VL: LSYELTQPSAVSTSLGQTARVTCQGDILESYGASWYQQKPGQAPVLVIYGDDSRPSGIPERFSGSSSGGTATLTISGAQAEDEADYYCLSADSSDYNAVFGGGTHLTVL
notes: Llama-derived Fab (VH-CH1 and VL-CL) from E. coli periplasmic extract; also called 9MP6C4
B9: in the assay with mouse IL-9 [4], the binding result is “no binding”. Moreover, in the assay with human IL-9 [5], the off-rate (koff) was determined as 0.00044 s⁻¹.

B10: Fab 6F2 (Fab, V domains shown)
VH: EVQLQESGPGLVKPSQTVSLTCTVSGGSITTRYYGWSWIRQPPGKGLEWMGVVYSDGSTSYSPSLESRTSISRDTSKNQFSLQLSFVTPEDTAVYYCARDRAEARLRVGPTGGNDYWGQGTQVTVSS
VL: AQAVVTQEPSLSVSPGGTVTLTCGLSSESVTSSNYPDWYQQTPGQVPRLLIYTTNSRHSGVPSRFSGSISGNKAALTITGAQPEDEADYYCGLYMGSTAVFGGGTKLTVL
notes: Llama-derived Fab (VH-CH1 and VL-CL) from E. coli periplasmic extract; also called 9MP6F2
Take B10: in the assay with human IL-9 [8], the binding result is on record as “binds”.

B11: anti-hIL-9 antibody 6D3 (full IgG) (antibody, V domains shown)
VH: QVQVQESGPGLVKPSQTLSLTCTVSGGPITTRYYAWSWIRQPPGKGLEWMGLIDYDGSVYYSPSLKSRTSISRDTAKNQFSLQLSSVTPEDTAVYYCARVSAATLFLDYWGQGTQVTVSS
VL: LSYELTQPSALSVTLGQTAKITCQGGSLGSSYAHWYQQKPDQAPILVIYDDDSRPSGIPERFSGSSSGGTATLTISGAQAEDEGDYYCQSYDSSANFVFGGGTKLTVL
notes: also called mAb 6D3; 9MP6D3
As for B11, the “IC50, inhibition” value with human IL-9 [1] was determined as 0.115 nM. In the assay with human IL-9 [2], binding was put at a Kd of 0.13 nM. In the assay with human IL-9 [3], the “Bioassay IC50 [pM]: inhibition” value stood at 58.4 pM.

B12: Fab 6D3 (Fab, V domains shown)
VH: B11 VH
VL: B11 VL
notes: it is treated as the same molecule; also called 9MP6D3
Turning to B12, the binding result with mouse IL-9 [4] is “no binding”.

B13: Fab 8G3 (Fab, V domains shown)
VH: EVQLVESGPGLVKPSQTLSLTCTVSGDSITTSYYGWGWIRQPPGKGLEWMGVIFSDGGTTYSPSLKSRTSISRDTSKSQFSLQLSSVTPEDTAVYYCARVQYYSGSYSYPTHIYDYWSQGTQVTVSS
VL: AQAVVTQEPSLSVSPGGTVTLTCGLSSGSVTTSNYPGWFQQTPGQAPRTLIYSTSSRHSGVPSRFSGSMSGNKAALTITGAQPEDEADYYCALHMGSSTVFGGGTHLTVL
notes: Llama-derived Fab (VH-CH1 and VL-CL) from E. coli periplasmic extract; also called 9MP8G3
Consider B13, for which the binding result with human IL-9 [8] is given as “binds”.

B14: Fab 8C3 (Fab, V domains shown)
VH: EVQVQESGPGLVKPSQTLSLTCTVSGGSITTSSYGWMWIRQPPGKGLEWMGVIFSDGSTAYNPSLRSRTSISRDTSKNQFSLQLSSVTPEDTAVYYCARSFVRGVVIGELDYGMDYWGKGTLVTVSS
VL: B13 VL
notes: Llama-derived Fab (VH-CH1 and VL-CL) from E. coli periplasmic extract; also called 9MP8C3
Turning to B14, the binding result in the assay with mouse IL-9 [4] is on record as “no binding”. This molecule also yielded a koff with human IL-9 [5] of 0.00067 s⁻¹.
